Test results: paper PMC4687139, “The secreted L-arabinose isomerase displays anti-hyperglycemic effects in mice” (Microbial Cell Factories, 2015)

T1: secreted L-arabinose isomerase (L-AI) from L. sakei 23 K, purified from L. lactis MRS40 (Latilactobacillus sakei, UniProt Q38UH2)
T1 construct: gene araA; araA fused behind SPUsp45 signal peptide and LEISSTCDA propeptide (pSEC:LEISS:araA); secreted by Lactococcus lactis NZ9000 htrA clpP (MRS40), purified from supernatant; about 56 kDa monomer, homotetramer
T1 sequence (Q38UH2 2-474 limits assumed): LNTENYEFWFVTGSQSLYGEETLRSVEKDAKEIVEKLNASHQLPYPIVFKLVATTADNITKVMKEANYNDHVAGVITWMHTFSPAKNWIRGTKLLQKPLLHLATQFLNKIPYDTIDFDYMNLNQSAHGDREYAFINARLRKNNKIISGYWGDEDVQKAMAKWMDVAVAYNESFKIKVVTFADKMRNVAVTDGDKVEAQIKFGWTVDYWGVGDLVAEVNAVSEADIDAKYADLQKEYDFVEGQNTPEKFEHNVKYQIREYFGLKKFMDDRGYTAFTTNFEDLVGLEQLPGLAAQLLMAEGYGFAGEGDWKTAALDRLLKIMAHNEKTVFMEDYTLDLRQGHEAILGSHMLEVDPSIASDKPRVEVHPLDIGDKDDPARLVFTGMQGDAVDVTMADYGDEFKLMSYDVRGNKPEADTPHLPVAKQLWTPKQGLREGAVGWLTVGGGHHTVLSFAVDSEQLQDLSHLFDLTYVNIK


Tests used:
[1] = target: T1, secreted L-arabinose isomerase (L-AI) from L. sakei 23 K, purified from L. lactis MRS40; assay: bioconversion to D-tagatose, cysteine carbazole assay; assay type: biochemical; conditions: 10 g/l D-galactose, 0.3 mg/ml enzyme, pH 5.0, 6.0 and 7.0
[2] = target: the molecule itself; assay: SEC; gel filtration chromatography of the purified L-AI preparations, calibrated with protein markers of 669, 440, 232, 140 and 66 kDa; read together with SDS-PAGE (monomer about 56 kDa)

| Molecule | bioconversion to D-tagatose, cysteine carbazole assay [1] | stoichiometry N [2] |
| --- | --- | --- |
| OC[C@H]1OC(O)[C@H](O)[C@@H](O)[C@H]1O (stereo partly drawn) [D-galactose] | The purified secreted L-AI displayed a high efficiency to isomerize the D-galactose into D-tagatose |  |
| L-arabinose isomerase (L-AI) from Lactobacillus sakei 23 K, produced intracellularly in E. coli (enzyme, UniProt Q38UH2 1-474, looked up, L-arabinose isomerase (araA gene product) of Lactobacillus sakei 23 K; apparent molecular weight of the monomer about 56 kDa on SDS-PAGE; also called intracellular form; purified L-AI from E. coli; source: E. coli BL21 (strain MRS36, plasmid pMR36), over-expressed and purified as previously reported [30]) MLNTENYEFWFVTGSQSLYGEETLRSVEKDAKEIVEKLNASHQLPYPIVFKLVATTADNITKVMKEANYNDHVAGVITWMHTFSPAKNWIRGTKLLQKPLLHLATQFLNKIPYDTIDFDYMNLNQSAHGDREYAFINARLRKNNKIISGYWGDEDVQKAMAKWMDVAVAYNESFKIKVVTFADKMRNVAVTDGDKVEAQIKFGWTVDYWGVGDLVAEVNAVSEADIDAKYADLQKEYDFVEGQNTPEKFEHNVKYQIREYFGLKKFMDDRGYTAFTTNFEDLVGLEQLPGLAAQLLMAEGYGFAGEGDWKTAALDRLLKIMAHNEKTVFMEDYTLDLRQGHEAILGSHMLEVDPSIASDKPRVEVHPLDIGDKDDPARLVFTGMQGDAVDVTMADYGDEFKLMSYDVRGNKPEADTPHLPVAKQLWTPKQGLREGAVGWLTVGGGHHTVLSFAVDSEQLQDLSHLFDLTYVNIK |  | 4 |
| secreted L-arabinose isomerase (L-AI) from Lactobacillus sakei 23 K, secreted by L. lactis MRS40 (pSEC:LEISS:araA) (enzyme) LEISSTCDAALNTENYEFWFVTGSQSLYGEETLRSVEKDAKEIVEKLNASHQLPYPIVFKLVATTADNITKVMKEANYNDHVAGVITWMHTFSPAKNWIRGTKLLQKPLLHLATQFLNKIPYDTIDFDYMNLNQSAHGDREYAFINARLRKNNKIISGYWGDEDVQKAMAKWMDVAVAYNESFKIKVVTFADKMRNVAVTDGDKVEAQIKFGWTVDYWGVGDLVAEVNAVSEADIDAKYADLQKEYDFVEGQNTPEKFEHNVKYQIREYFGLKKFMDDRGYTAFTTNFEDLVGLEQLPGLAAQLLMAEGYGFAGEGDWKTAALDRLLKIMAHNEKTVFMEDYTLDLRQGHEAILGSHMLEVDPSIASDKPRVEVHPLDIGDKDDPARLVFTGMQGDAVDVTMADYGDEFKLMSYDVRGNKPEADTPHLPVAKQLWTPKQGLREGAVGWLTVGGGHHTVLSFAVDSEQLQDLSHLFDLTYVNIK |  | 4 |
